In publication PMC9959508:

Biological target: human angiotensin-converting enzyme 2 (human) (UniProt Q9BYF1)
Sequence (Q9BYF1 18-805): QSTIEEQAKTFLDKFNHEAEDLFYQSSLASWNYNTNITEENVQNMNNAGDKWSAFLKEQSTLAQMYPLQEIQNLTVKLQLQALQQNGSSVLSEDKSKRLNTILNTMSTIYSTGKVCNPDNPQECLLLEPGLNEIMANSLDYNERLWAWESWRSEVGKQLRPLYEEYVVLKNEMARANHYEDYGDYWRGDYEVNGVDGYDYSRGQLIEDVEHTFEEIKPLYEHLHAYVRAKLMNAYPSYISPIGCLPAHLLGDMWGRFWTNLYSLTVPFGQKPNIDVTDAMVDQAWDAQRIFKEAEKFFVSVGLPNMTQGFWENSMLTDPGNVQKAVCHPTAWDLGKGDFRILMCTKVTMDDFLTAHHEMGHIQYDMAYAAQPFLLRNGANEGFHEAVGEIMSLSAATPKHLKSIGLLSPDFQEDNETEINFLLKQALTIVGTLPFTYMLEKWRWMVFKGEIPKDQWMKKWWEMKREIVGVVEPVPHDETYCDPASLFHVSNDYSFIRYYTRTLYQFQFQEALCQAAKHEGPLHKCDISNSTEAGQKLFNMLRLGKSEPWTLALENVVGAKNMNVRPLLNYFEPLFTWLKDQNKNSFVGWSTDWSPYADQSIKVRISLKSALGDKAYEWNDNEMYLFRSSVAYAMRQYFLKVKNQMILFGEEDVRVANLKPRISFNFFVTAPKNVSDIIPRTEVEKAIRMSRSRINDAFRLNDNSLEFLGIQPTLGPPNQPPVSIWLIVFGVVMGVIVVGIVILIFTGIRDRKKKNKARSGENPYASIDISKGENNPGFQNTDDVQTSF

Sequence of PCSK9 lacking the CHRD (Q8NBP7 31-152): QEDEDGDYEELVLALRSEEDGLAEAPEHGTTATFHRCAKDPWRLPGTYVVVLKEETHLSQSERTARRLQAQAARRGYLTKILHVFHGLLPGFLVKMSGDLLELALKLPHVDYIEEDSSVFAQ
Sequence of PCSK9 lacking the CHRD (Q8NBP7 153-455): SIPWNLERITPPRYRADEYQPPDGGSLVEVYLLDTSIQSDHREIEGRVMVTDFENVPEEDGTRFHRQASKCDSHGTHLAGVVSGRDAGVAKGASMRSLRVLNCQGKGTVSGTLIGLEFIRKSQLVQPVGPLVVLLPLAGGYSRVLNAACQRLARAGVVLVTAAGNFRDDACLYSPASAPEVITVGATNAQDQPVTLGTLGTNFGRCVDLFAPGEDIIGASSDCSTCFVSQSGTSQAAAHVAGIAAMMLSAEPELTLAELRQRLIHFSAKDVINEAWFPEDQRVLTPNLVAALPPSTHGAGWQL
Sequence of wild-type human PCSK9, mature (prodomain non-covalently bound to the rest of the protein) (Q8NBP7 31-152): as the sequence (Q8NBP7 31-152) above
Sequence of wild-type human PCSK9, mature (prodomain non-covalently bound to the rest of the protein) (Q8NBP7 153-692): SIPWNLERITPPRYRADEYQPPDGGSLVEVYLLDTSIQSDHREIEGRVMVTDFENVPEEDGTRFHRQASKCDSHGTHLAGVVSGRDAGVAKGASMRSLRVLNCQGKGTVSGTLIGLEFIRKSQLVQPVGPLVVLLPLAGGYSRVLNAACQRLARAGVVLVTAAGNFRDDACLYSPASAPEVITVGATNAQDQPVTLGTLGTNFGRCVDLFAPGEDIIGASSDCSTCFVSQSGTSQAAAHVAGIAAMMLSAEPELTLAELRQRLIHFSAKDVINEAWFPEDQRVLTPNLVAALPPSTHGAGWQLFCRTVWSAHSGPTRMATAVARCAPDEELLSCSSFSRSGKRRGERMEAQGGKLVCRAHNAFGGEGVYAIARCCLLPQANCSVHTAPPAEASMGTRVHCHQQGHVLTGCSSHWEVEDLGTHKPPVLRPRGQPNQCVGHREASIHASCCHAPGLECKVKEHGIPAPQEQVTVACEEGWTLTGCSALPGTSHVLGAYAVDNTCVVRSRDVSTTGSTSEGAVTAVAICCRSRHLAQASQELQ
Sequence of PCSK9 lacking the M2 module of the CHRD (Q8NBP7 31-152): as the sequence (Q8NBP7 31-152) above
Sequence of PCSK9 lacking the M2 module of the CHRD (Q8NBP7 153-692): as the sequence (Q8NBP7 153-692) above

Row | Substance | reduction of the level of ACE2 in HeLa cells after 18 h with conditioned medium (Western blot, relative to β-actin) | reduction of the level of ACE2 in HeLa cells after 18 h with PCSK9 conditioned medium (Western blot, relative to β-actin)
1 | PCSK9-D374Y, gain-of-function natural variant (from UniProt Q8NBP7 31-152; Q8NBP7 153-692) (natural protein) | 90% | –
2 | PCSK9 lacking the CHRD (from UniProt Q8NBP7 31-152; Q8NBP7 153-455) (domain or fragment) | 50% | –
3 | wild-type human PCSK9, mature (prodomain non-covalently bound to the rest of the protein) (from UniProt Q8NBP7 31-152; Q8NBP7 153-692) (natural protein) | – | 30%
4 | PCSK9 lacking the M2 module of the CHRD (from UniProt Q8NBP7 31-152; Q8NBP7 153-692) (natural protein) | 50% | –
